According to the DeepSol protein solubility set:

Assay: soluble on expression in E. coli; label from the status in PepcDB or PDB records

Sequence	soluble on expression in E. coli
MEQNGFHTLSLFLNPKVLRPLLTQAVTQLPKYFLGQSSTPPSTSFEGRYKPSFLERAAFSTNPFDNTGSDTQQKLSPTELIRGSYGEGREAGKKTPAELIMSTDDLKRQMPSLPDALKDTIRIQEVPKQEKSDFSEQGGVASMIPQSPFVSNIDKVSGDEAGRQQKDVMDYITEFNNRSMPEEQRGSSPVNEETLSHTPISEEEHLKANDMPEQATDYVNAVGNFIHKDANPSNLWERFRKSEFSEHLMDFFAGLASGKTPQESFSNAALVMRQGNNTRLQNRPIFAFLRSKGYDDKDAQAIMQYPDLAMKVIGSTLSPQEDYRTLTAEEKAKQGLPEDMAFQISTSTGKIIPVQGGQRSTASGLGGNTDSMLSKPESGYMLVKDKNAPHGIRAMPIAGSGAEHKLIQEQKEEERKEQQAKMQILESADRSNRIISTSKELLKIVDEHPHVAGFLGYWGSFIPGFKAKDFGHMLDSLKASIGLDALTKAKAFSPNGASGFGNLSNMELQALQNSVAALYQDLTAEQLKKSLTTIIDTFNKSNAATRAILFGGAEATRELVRAAYGEDAYKKNNTQSDVSLEKQIEALPEGILFIDSDGRIKEKQTNG	not soluble
MEQNIATAQVSVARPNWDKSRLVSRIVHLGCGAFHRAHQALFTHHLLEKSDSDWGICEVNLMPGNDARLIANLKAQNLLYTVAERGAESTELKIIGSMKEALHPEFDGHAGILAAMARPETAIVSLTVTEKGYCTDPASGELDVNNPLIQNDLAHPQQPKSAIGYIVEALNMRREQGLKAFTVLSCDNVRENGHVAKAAVLGLAKARDAALAAWIADNVTFPCTMVDRIVPAATEETLQLVADQLGVYDPCAIACEPFRQWVIEDNFVNGRPDWDTVGAQFVADVVPFEMMKLRMLNGSHSFLAYLGYLGGYDTIADTMTNPAYRRAALALMLDEQAPTLSMPEGTDLEGYANLLIARFTNPSLKHRTWQIAMDGSQKLPQRLLDPVRLHLQQGDDYRRLTLGVAGWMRYVGGVDEQGKTIDVVDPLLAQYQAIHQQYQTPEERVRGLLAIESIFGNDLPKNHEFVQAVTDAYQQLLQNGAKATVEALAK	not soluble
MEQQIADLLDEQEELDLPQEQLEAAEGESEEESEEESSQGEKFPKTRAARIQRLVRDAAVSRNVKDLYGGECQACGLRLVGPDGRPYSEGAHIRPLGKPHCGPDVEPNVLCLCPNCHVRLDIGAIIIEDDWSIIVRAGELGGNVLSKLKRKKEHHVHLDYVRYHREWWLEKGDPSQELEHHHHHH	soluble
MEQQSYTIIDETGAHARPATMLVQTASKFDSDIQLEYNGKKVNLKSIMGVMSLGVGKDAEITIYADGSDEADAIQAITDVLSKEGLTE	soluble
MEQRTRLALLKEIAEFLNEETEMYSMTQGALKYLIEGSNFTTGWIFFINSVGEHELVSHVALPQSLTADHCHYIKDGSCWCVKAFNQRRLMKASNIVNCSRINLASKAFPSQNDNITHHATVPLKSGQEQFGILNVASPNTEIYSDEDLELLESVAFQLGSAIKRIYLTDREKEAAKINERNRLARDLHDSVNQMLFSVKLTAHAAYGMSNESIAKQAFKTIEKTSQNAVNEMRALIWQLKPVGLEQGLIHALTAYSKLMHIQLNVNVEGLIDLSNEIEENIYRALQECINNVKKHADTNKMDLTLKQMNDILYIDVIDYGQGFEIDNVQIASSHGINNIKQRVKLLRGKVTFHSQPTKGTQIQFTIPIK	not soluble
MERDGCFGNCWLRRWEKSDMNRKGFGGHRDAKQLSRTKNRFARLDPDTQSRYEDDDEPAVPVRASLTSASSRGRGGSSRGFGQSAASIANTGVRNADIVYKCRATGAAKKVDAKWLIKQLNQIIENFKPLLWTDNARGDFEWYVRDEDTASTIRANNRRVVHKESGTRVEFYTSKVPAPWMKLKREEIEIIHRVVDKRHNAENRVLDLSNFHEDEEFKAKDMMMNLTKGNVMLTVLDHIDDKYGNIVALSLSNNRIRHLDYASALVSIAKFVMELDLSHNHISTEKELEKFAGLPVERFFFEGNPVVESFTQRAAYISYIHQSFPRCNMLDGVEVQPLVVGPDLDIHDAMPFRAGYYPNPQIRVLVEQFVTSYFDFYDGPDGQRTRRNLHNAYDADASTFSLTIEHLRGSSHARHHNDECFAQYAGVSHNVLKQERFARHRASRSARGAMDIAVALSKLPTSSHMRDTFIVDVFLQSNDLLGFTVQGLFCDGDLTQTPSPSFFSRSFLVSPRENDSVAVISDQLFITVASLDRLEKFKKLYDQSIANGAAVEQVSAVQIAQIGVNGMGFDGAPALPIREEMIKAMCQFSGMIPPFSEKCLADCAWNFDFACQKFNEIKSSVPAEAFAH	not soluble
MERELAHWVERLRERAEAEGLSFPPVAFQEVGPEEMAMLAAYGGFPRRYPHWRWGSAYLHYRETYRYGLARIYELVVNTVPVQAYLLRGNPLLAQKLVVAHVYAHADFFQNNLAFKPIPKDMLAEMAHHAAYVERAMERHGARSVEEFLDLALSLENLIDPHAPYIQRPAQKEEEAPKRLPVRPYLDPYVNPAPAFPKEAEEGASPEPLPPRPTRDILGFLARHAPLAPWQKGILEIVREESLYFAPQAATKILNEGWATYWHTRLLLPLLTPEEALEFAEMQANLLAPHGLNPYRLGYHLLMEVEERWDKGRFGPEYEALPLGERLRYERPTGEGRKKLFQVRTVYTDLNFLEEFLTPEFALRRGLFALEDLPRFAEAKKALLFRLTNLGYPIVELVDANYQNRGELLLAHAYEGVELDLRKTKAVLENLHRLWGRPVHLKTVVGGKETLLSAGA	soluble
MERSALVTGGASGLGRAAALALKARGYRVVVLDLRREGEDLIYVEGDVTREEDVRRAVARAQEEAPLFAVVSAAGVGLAEKILGKEGPHGLESFRRVLEVNLLGTFNVLRLAAWAMRENPPDAEGQRGVIVNTASVAAFEGQIGQAAYAASKGGVVALTLPAARELAGWGIRVVTVAPGLFDTPLLQGLPEKAKASLAAQVPFPPRLGRPEEYAALVLHILENPMLNGEVVRLDGALRMAPR	soluble
MESFQTIVDNEVLMESCGIQQESKIKNFPWAVSFTVDGVNRLGGSIISPYHIITAAHGFITTIGSRGNLCENKNWKKPNSSIYRSIKFLRDTRKVAYGGTCIRGHTDKYPNDPRCKKSDVIHNKVRAVLVDGEFASSNCLKGHDWAIVEVEKRIHFSENVRPICLPRPNMYYTKSLAVPGWGRIFNESGPLIHEIPMRIDRDCKRPWSDRLPADADDFICATSMNVSNYSAPRTCHGDSGGGLEYRDDNYGRAFLIAITSFGTRGCPSNMLARFTRVDMYLNLICNYTGVCY	not soluble
MESKRNKPGKATGKGKPVGDKWLDDAGKDSGAPIPDRIADKLRDKEFKSFDDFRKAVWEEVSKDPELSKNLNPSAKSSVSKGYSPFTPKNQQVGGRKVYELHHDKPISQGGEVYDMDNIRVTTPKRHIDIHRGK	soluble
MESKSVDTRSIYRELGATLSYNMRLGNGMEIEPWLKAAVRKEFVDDNRVKVNSDGNFVNDLSGRRGIYQAGIKASFSSTLSGHLGVGYSRGAGVESPWNAVVGVNWSF	not soluble
MESSVDEEALHQLYLWVDNIPLSRPKRNLSRDFSDGVLVAELIKFYFPKMVEMHNYVPANSLQQKLSNWGHLNRKVLNKLNFSVPDDVMRKIAQCSPGVVELVLIPLRQRLEERQRRQKLGVGSLQELAPQDSSGYMDMGLPQKVRGEGAPALGEQLREGRPLASRPPGYNQALQGDPSFVLQIAEKEQELLASQETVQVLQMKVKRLEHLLQLKNVRIDDLSRRLQQAERKQR	soluble
METALVSIIMPMYNAGKFLSKSIESVLEQTYQNWELLLIDDGSKDDSIDIALAFMEKDSRIFLLKNEQNMGIAKTRNKGIEASKGQYIAFLDSDDLWLPNKLEVQVKWMEEKKLLFTCSSYFVCNENGNITHERNFSEGPQTYQDLLKTNTIGCLTVVVESNLLKRHLMPDLKHEDYATWLNILKEINTVYFINEKLAIYRKLTTSTSSNKWNTISWVWKILRQNEQFSVIKSSFYLMRFLFYTTFKYAKNELEHHHHHH	soluble
METKQKERIRRLMELLKKTDRIHLKDAARMLEVSVMTIRRDLSQDDDPLPLTLLGGYIVMVNKPASSTNMPLPAKKTHHRDDLPVAILAAGLVRENDLVFFDNGPEMPLVISMIPDDITFTGICYSHRVFIALNEKPNATAILCGGTYRAKSDAFYDANNPSALDSLNPRKVFISASGVHEHFGVSWFNPDDLAAKRKAMERGLRKILLARHALFDEVAPASIGPLSAFDVLISDRPLPTDYAVHCRNGSVKVITPDSESE	not soluble
METNLFKLSLDDVETPKGSMLDLKISQSKIALPKNTVGGTILRSDLLANFLTEGNFRASVDLQRTHRIKGMIKMVATVGIPENTGIALACAMNSSIRGRASSDIYTICSQDCELWNPACTKAMTMSFNPNPCSDAWSLEFLKRTGFHCDIICVTGWTATPMQDVQVTIDWFISSQECVPRTYCVLNPQNPFVLNRWMGKLTFPQGTSRSVKRMPLSIGGGAGAKSAILMNMPNAVLSMWRYFVGDLVFEVSKMTSPYIKCTVSFFIAFGNLADDTINFEAFPHKLVQFGEIQEKVVLKFSQEEFLTAWSTQVRPATTLLADGCPYLYAMVHDSSVSTIPGDFVIGVKLTIIENMCAYGLNPGISGSRLLGTIPQ	soluble
METPIAEELAKKQKSISVAEFFEKNRQILGFDSAPRSLITTVKEAVDNALDACEEAGILPDILVQVERTGPDYVTVIIEDNGPGIVREQIPKVFAKLLYGSRFHALKQSRGQQGIGISAAVLYAQMTAGRHTKILSKTSPTAPAHYYELMINTSTNEPDILVDEVRDWFRPHGTQIELEMRAAYVKGRRQSIYEYLKATAIVNPHARITLIDPDGNEEVFERATDKMPEPAEEILPHPEGIELGTLMKMLHYTERQKLAPFLRYSFCKIGLLTAEEICKAAGLDPEIDPHALGRHEARKLIEAFEKVKIMAPPTDCLSPIGEDLIYRGLEKETTVDFIATSTRKPAVYSGNPFVVEVGMAYGGNLPKEEKISIMRFANRVPLLYQQGGCVTTHAVEDIKWKQYGLNQPGGGIPVGPVILLIHVASINVPFTSESKDAIADIPVIKEEIDLAIKEVARKLKHYLSKQSNLKKRREKEIIITKVLPKLAAKVAHVLEKDVPDINPVVAKIMGNLLVHRVIKNNGDGTVDVAIKVKNFGTSAYSFRVHEMLPCKVSGAKPEPKVVTMGNDYDYVWDISASAGSSKVLSYKIESASEEELQKLPQLIVEGIEEELVTGAKAFKGV	soluble
METPVPKPRTKFEPSSPEPTLPPRPPVKPPRAVANSTAVQNFGNVLGELRLNLNETISSQDPPGIGFIEVSPGTSMSPPQRHAPPPPRPPPPAGWKQHPVIPERIQLNRPLPSLPIDVSLTPVYSEPSTSSPSSTNCYENHNSSVVENPLYLSLDTYRSISGITPSPSNAPTTSPDCDELREWLTEEEENESCSSSRPENLNASIPAPIPGDDSRPSIDSEENPYTPCPRRSDYDNSEFIGSTIDPFDDSFYTDNTTNNSHQNLYVSPQFVKEKTKSECDRYENVVEICSSPDPPPTHLYVNVPPIYPSADNIISSESDDVFRDEGKMKIDGSSITFVGFVSLTSSKKEKRLHCRLRNMQLSFHDDEDSTEPSNGTFDIKGIYLFRHMASDTPYILIHVGEKRNVISFIPEDPPNLWMFFLSEAWLSLNYGLTSVLRDADELTICGITWIKHGTTGEWKICSAGINGLTLHYMLVDAKDRIYNRNSERSDAGTSFMSTVGSIIGDELVEVDLRKVMTMRERIDKSEFCPNARHKRGPFSITLHGVTLYIDSRDDSTTSHWYEAIEALLKRPATRLENLRLTGDNIPVIVDKCIRFVSAYGMKCEGIYRRNGKVTEAKTILTKLTEDPVGYYPVHENDETVYAVADVLRQFFRKLDAPLFPSSSQADLFDLATESQSDELCARYAQLINTFELVHRSTLKKLIGHLKNVSEHAQENRASVENLAKVFAASLFLTDAMDEKVFSESYNHQINVLIHLTTGYDVVFQISIEEELSRQMVNDAEKKSFNAKKPSPDFIVAIHVWEKENRPFNVKMSLASEEVCREAIAKRGFDGPPDSPYAIFECLAGGNLIRRLPNAQKMSKCVLQWIDWNCKDAYLLFDHDKYQFNGTDMSCFTGKIKIAEPGSRTFKSYEVKIENGTSIVAFRNEKLWKAWPMDDSIWYVGTEPTRKSPNLFNATMICSTKTGYSSSRFPGFCFSFKEETDRNRWLTALSHFTKSIDSEPLVYI	not soluble
